In doi:10.1101/2021.01.08.425906:

Biological target: CagFbFP-I52T-Q148K (Chloroflexus aggregans) (UniProt B8GAY9)
Assay: crystal structure

**Q.** How did the stoichiometry N turn out when “CagFbFP-I52T-Q148K (from UniProt B8GAY9 47-153) (domain or fragment)” was run?
**A.** 2
